# Results published in publication PMC12804361.
# Assays:
# VcCap5 [1] = assay: AUC; sedimentation velocity, VcCap5 with 3'2'-cGAMP, 0.8 mg/ml, 20 mM Tris-HCl pH 7.5, 200 mM NaCl, 55,000 rpm, 20 °C; c(s) fit in SEDFIT; dimer to tetramer
# VcCap5 [2] = assay: AUC; sedimentation velocity, apo VcCap5 at 0.8 mg/ml, 20 mM Tris-HCl pH 7.5, 200 mM NaCl, 55,000 rpm, 20 °C; c(s) fit in SEDFIT; monomer to dimer
substance,measurement,setting,value
VcCap5 (enzyme),stoichiometry N,VcCap5 [1],4
same,stoichiometry N,VcCap5 [2],2
